Residue numbers refer to the chain shown, from its start.
T1: FcγRIIa(R) (human, UniProt P12318 34-217)
T1 construct: extracellular domain; also called 2aR
T1 sequence: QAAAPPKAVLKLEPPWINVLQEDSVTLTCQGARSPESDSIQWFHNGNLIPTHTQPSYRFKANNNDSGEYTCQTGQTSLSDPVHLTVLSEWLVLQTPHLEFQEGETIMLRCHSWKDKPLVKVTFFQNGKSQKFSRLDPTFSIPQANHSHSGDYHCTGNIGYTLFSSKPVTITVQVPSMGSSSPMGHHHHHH

T2: FcγRIIa(H) (human, UniProt P12318 34-217)
T2 construct: extracellular domain; also called 2aH
T2 sequence: T1 sequence with R134H

T3: FcγRIIb (human, UniProt P31994 43-217)
T3 construct: extracellular domain; also called 2b
T3 sequence: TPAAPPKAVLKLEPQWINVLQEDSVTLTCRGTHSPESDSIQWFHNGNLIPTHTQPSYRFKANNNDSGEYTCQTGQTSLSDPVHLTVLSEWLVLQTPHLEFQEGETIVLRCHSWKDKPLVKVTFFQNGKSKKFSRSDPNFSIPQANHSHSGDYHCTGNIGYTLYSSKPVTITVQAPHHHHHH

B1: GpH7-A5/GpH7-B3 variant A330_18N/GpL16-k0 (antibody, human IgG1, kappa)
heavy 1: not shown
heavy 2: not shown
light: DIVMTQSPLSLPVTPGEPASISCQASESLVHSNRNTYLHWYLQKPGQSPQLLIYKVSNRFSGVPDRFSGSGSGTDFTLKISRVEAEDVGVYYCSQNTHVPPTFGQGTKVEIERTVAAPSVFIFPPSDEQLKSGTASVVCLLNNFYPREAKVQWKVDNALQSGNSQESVTEQDSKDSTYSLSSTLTLSKADYEKHKVYACEVTHQGLSSPVTKSFNRGEC
notes: He Ab: heterodimerized IgG1, one H chain mutated
B2: GpH7-A5/GpH7-B3 variant L328_04F/GpL16-k0 (antibody, human IgG1, kappa)
heavy 1: not shown
heavy 2: not shown
light: B1 light
notes: as for B1
B3: GpH7-A5/GpH7-B3 variant K326_10E/GpL16-k0 (antibody, human IgG1, kappa)
heavy 1: not shown
heavy 2: not shown
light: B1 light
notes: as for B1
B4: GpH7-A5/GpH7-B3 variant L328_18N/GpL16-k0 (antibody, human IgG1, kappa)
heavy 1: not shown
heavy 2: not shown
light: B1 light
notes: as for B1
B5: GpH7-A5/GpH7-B3 variant K326_02A/GpL16-k0 (antibody, human IgG1, kappa)
heavy 1: not shown
heavy 2: not shown
light: B1 light
notes: as for B1
B6: GpH7-A5/GpH7-B3 variant L328_03V/GpL16-k0 (antibody, human IgG1, kappa)
heavy 1: not shown
heavy 2: not shown
light: B1 light
notes: as for B1
B7: GpH7-A5/GpH7-B3 variant N325_09D/GpL16-k0 (antibody, human IgG1, kappa)
heavy 1: not shown
heavy 2: not shown
light: B1 light
notes: as for B1
B8: GpH7-A5/GpH7-B3 variant K326_20W/GpL16-k0 (antibody, human IgG1, kappa)
heavy 1: not shown
heavy 2: not shown
light: B1 light
notes: as for B1
B9: GpH7-A5/GpH7-B3 variant K326_13S/GpL16-k0 (antibody, human IgG1, kappa)
heavy 1: not shown
heavy 2: not shown
light: B1 light
notes: as for B1
B10: GpH7-A5/GpH7-B3 variant A330_20W/GpL16-k0 (antibody, human IgG1, kappa)
heavy 1: not shown
heavy 2: not shown
light: B1 light
notes: as for B1
B11: GpH7-A5/GpH7-B3 variant K326_01G/GpL16-k0 (antibody, human IgG1, kappa)
heavy 1: not shown
heavy 2: not shown
light: B1 light
notes: as for B1
B12: GpH7-A5/GpH7-B3 variant K326_07I/GpL16-k0 (antibody, human IgG1, kappa)
heavy 1: not shown
heavy 2: not shown
light: B1 light
notes: as for B1
B13: GpH7-A5/GpH7-B3 variant K326_05P/GpL16-k0 (antibody, human IgG1, kappa)
heavy 1: not shown
heavy 2: not shown
light: B1 light
notes: as for B1
B14: GpH7-A5/GpH7-B3 variant L328_19Q/GpL16-k0 (antibody, human IgG1, kappa)
heavy 1: not shown
heavy 2: not shown
light: B1 light
notes: as for B1
B15: GpH7-A5/GpH7-B3 variant K326_08L/GpL16-k0 (antibody, human IgG1, kappa)
heavy 1: not shown
heavy 2: not shown
light: B1 light
notes: as for B1
B16: GpH7-A5/GpH7-B3 variant L328_14T/GpL16-k0 (antibody, human IgG1, kappa)
heavy 1: not shown
heavy 2: not shown
light: B1 light
notes: as for B1
B17: GpH7-A5/GpH7-B3 variant N325_13S/GpL16-k0 (antibody, human IgG1, kappa)
heavy 1: not shown
heavy 2: not shown
light: B1 light
notes: as for B1
B18: GpH7-A5/GpH7-B3 variant L328_02A/GpL16-k0 (antibody, human IgG1, kappa)
heavy 1: not shown
heavy 2: not shown
light: B1 light
notes: as for B1
B19: GpH7-A5/GpH7-B3 variant A330_19Q/GpL16-k0 (antibody, human IgG1, kappa)
heavy 1: not shown
heavy 2: not shown
light: B1 light
notes: as for B1
B20: GpH7-A5/GpH7-B3 variant K326_03V/GpL16-k0 (antibody, human IgG1, kappa)
heavy 1: not shown
heavy 2: not shown
light: B1 light
notes: as for B1
B21: GpH7-A5/GpH7-B3 variant L328_16H/GpL16-k0 (antibody, human IgG1, kappa)
heavy 1: not shown
heavy 2: not shown
light: B1 light
notes: as for B1
B22: GpH7-A5/GpH7-B3 variant L328_13S/GpL16-k0 (antibody, human IgG1, kappa)
heavy 1: not shown
heavy 2: not shown
light: B1 light
notes: as for B1
B23: GpH7-A5/GpH7-B3 variant K326_18N/GpL16-k0 (antibody, human IgG1, kappa)
heavy 1: not shown
heavy 2: not shown
light: B1 light
notes: as for B1
B24: GpH7-A5/GpH7-B3 variant K326_19Q/GpL16-k0 (antibody, human IgG1, kappa)
heavy 1: not shown
heavy 2: not shown
light: B1 light
notes: as for B1
B25: GpH7-A5/GpH7-B3 variant K326_12R/GpL16-k0 (antibody, human IgG1, kappa)
heavy 1: not shown
heavy 2: not shown
light: B1 light
notes: as for B1
B26: GpH7-A5/GpH7-B3 variant L328_06M/GpL16-k0 (antibody, human IgG1, kappa)
heavy 1: not shown
heavy 2: not shown
light: B1 light
notes: as for B1
B27: GpH7-A5/GpH7-B3 variant P329_09D/GpL16-k0 (antibody, human IgG1, kappa)
heavy 1: not shown
heavy 2: not shown
light: B1 light
notes: as for B1
B28: GpH7-A5/GpH7-B3 variant L328_15Y/GpL16-k0 (antibody, human IgG1, kappa)
heavy 1: not shown
heavy 2: not shown
light: B1 light
notes: as for B1
B29: GpH7-A5/GpH7-B3 variant K326_04F/GpL16-k0 (antibody, human IgG1, kappa)
heavy 1: not shown
heavy 2: not shown
light: B1 light
notes: as for B1
B30: GpH7-A5/GpH7-B3 variant K326_15Y/GpL16-k0 (antibody, human IgG1, kappa)
heavy 1: not shown
heavy 2: not shown
light: B1 light
notes: as for B1
B31: GpH7-A5/GpH7-B3 variant K326_14T/GpL16-k0 (antibody, human IgG1, kappa)
heavy 1: not shown
heavy 2: not shown
light: B1 light
notes: as for B1
B32: GpH7-A5/GpH7-B3 variant K326_16H/GpL16-k0 (antibody, human IgG1, kappa)
heavy 1: not shown
heavy 2: not shown
light: B1 light
notes: as for B1
B33: GpH7-A5/GpH7-B3 variant K326_06M/GpL16-k0 (antibody, human IgG1, kappa)
heavy 1: not shown
heavy 2: not shown
light: B1 light
notes: as for B1
B34: GpH7-A5/GpH7-B3 variant L328_07I/GpL16-k0 (antibody, human IgG1, kappa)
heavy 1: not shown
heavy 2: not shown
light: B1 light
notes: as for B1
B35: GpH7-A5/GpH7-B3 variant K326_09D/GpL16-k0 (antibody, human IgG1, kappa)
heavy 1: not shown
heavy 2: not shown
light: B1 light
notes: as for B1

Molecular target: T4, FcγRIa (human, UniProt P12314 16-292)
T4 construct: extracellular domain; also called 1a
T4 sequence (P12314 other isoform, or with tags, fused parts or gaps): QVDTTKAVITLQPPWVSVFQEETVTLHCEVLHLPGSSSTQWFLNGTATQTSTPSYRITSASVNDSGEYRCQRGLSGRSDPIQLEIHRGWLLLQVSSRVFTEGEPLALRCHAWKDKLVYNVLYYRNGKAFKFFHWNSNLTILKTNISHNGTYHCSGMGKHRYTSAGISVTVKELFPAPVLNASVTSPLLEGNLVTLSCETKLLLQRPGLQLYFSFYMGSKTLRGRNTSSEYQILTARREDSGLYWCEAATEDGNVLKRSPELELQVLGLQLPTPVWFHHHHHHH
Experiment: SPR, relative to GpH7-A5/GpH7-B3/GpL16-k0 =100

| He/Con 1a [%] | Binder |
| --- | --- |
| 110 | B1 |
| 100 | B2 |
| 109 | B3 |
| 101 | B4 |
| 107 | B5 |
| 103 | B6 |
| 105 | B7 |
| 108 | B8 |
| 106 | B9 |
| 111 | B10 |
| 106 | B11 |
| 106 | B12 |
| 106 | B13 |
| 104 | B14 |
| 105 | B15 |
| 103 | B16 |
| 102 | B17 |
| 101 | B18 |

| He/Con 1a [%] | Binder |
| --- | --- |
| 109 | B19 |
| 107 | B20 |
| 98.5 | B21 |
| 101 | B22 |
| 110 | B23 |
| 108 | B24 |
| 105 | B25 |
| 101 | B26 |
| 80.1 | B27 |
| 104 | B28 |
| 107 | B29 |
| 111 | B30 |
| 109 | B31 |
| 109 | B32 |
| 108 | B33 |
| 102 | B34 |
| 109 | B35 |

Molecular target: T1, FcγRIIa(R)
Experiment: SPR, relative to GpH7-A5/GpH7-B3/GpL16-k0 =100

| He/Con 2aR [%] | Binder |
| --- | --- |
| 91 | B1 |
| 177 | B2 |
| 142 | B3 |
| 76.4 | B4 |
| 125 | B5 |
| 150 | B6 |
| 111 | B7 |
| 125 | B8 |
| 119 | B9 |
| 97.6 | B10 |
| 108 | B11 |
| 141 | B12 |
| 118 | B13 |
| 115 | B14 |
| 131 | B15 |
| 153 | B16 |
| 137 | B17 |
| 150 | B18 |

| He/Con 2aR [%] | Binder |
| --- | --- |
| 117 | B19 |
| 135 | B20 |
| 106 | B21 |
| 150 | B22 |
| 110 | B23 |
| 124 | B24 |
| 98.6 | B25 |
| 148 | B26 |
| 76 | B27 |
| 174 | B28 |
| 129 | B29 |
| 131 | B30 |
| 128 | B31 |
| 115 | B32 |
| 132 | B33 |
| 160 | B34 |
| 142 | B35 |

Molecular target: T2, FcγRIIa(H)
Experiment: SPR, relative to GpH7-A5/GpH7-B3/GpL16-k0 =100

| He/Con 2aH [%] | Binder |
| --- | --- |
| 88.3 | B1 |
| 84.9 | B2 |
| 106 | B3 |
| 80.6 | B4 |
| 110 | B5 |
| 116 | B6 |
| 55.3 | B7 |
| 86.7 | B8 |
| 110 | B9 |
| 93.8 | B10 |
| 105 | B11 |
| 104 | B12 |
| 103 | B13 |
| 103 | B14 |
| 96.5 | B15 |
| 138 | B16 |
| 83 | B17 |
| 154 | B18 |

| He/Con 2aH [%] | Binder |
| --- | --- |
| 110 | B19 |
| 101 | B20 |
| 84.5 | B21 |
| 146 | B22 |
| 113 | B23 |
| 106 | B24 |
| 105 | B25 |
| 122 | B26 |
| 57.1 | B27 |
| 106 | B28 |
| 101 | B29 |
| 102 | B30 |
| 119 | B31 |
| 102 | B32 |
| 108 | B33 |
| 111 | B34 |
| 115 | B35 |

Molecular target: T3, FcγRIIb
Experiment: SPR, relative to GpH7-A5/GpH7-B3/GpL16-k0 =100

| He/Con 2b [%] | Binder |
| --- | --- |
| 71.9 | B1 |
| 273 | B2 |
| 224 | B3 |
| 101 | B4 |
| 156 | B5 |
| 157 | B6 |
| 139 | B7 |
| 166 | B8 |
| 139 | B9 |
| 86 | B10 |
| 119 | B11 |
| 223 | B12 |
| 141 | B13 |
| 131 | B14 |
| 198 | B15 |
| 176 | B16 |
| 198 | B17 |
| 180 | B18 |

| He/Con 2b [%] | Binder |
| --- | --- |
| 103 | B19 |
| 196 | B20 |
| 100 | B21 |
| 186 | B22 |
| 118 | B23 |
| 156 | B24 |
| 100 | B25 |
| 176 | B26 |
| 60.4 | B27 |
| 240 | B28 |
| 174 | B29 |
| 179 | B30 |
| 168 | B31 |
| 133 | B32 |
| 185 | B33 |
| 200 | B34 |
| 216 | B35 |
